Source: patent publication US20170274062A1 (OURO FINO SAUDE ANIMAL LTDA, published 2017)

B1: Exomyc polyprotein 2, Rrp41-P46-P97R1R2 (other)
chain: MAEKPEGLKLIDENGRRIDGRKKYELRPIKMEVGVLKNANGSAYIEWGKNKIIAAVYGPRELHPKHLQRPDRAILRVRYNMAPFSVEETKSPGPDRRSIEISKVIKGALEPALILEMFPRTAIDVFIEVLQADAGTRVAGITAASLALADAGIPMRDLVAACAAGKIEGEIVLDLNKEEDNYGEADVPVAIMPLKNDITLLQMDGYLTKDEFIEAVKLAIKGAKAVYQKQREALKEKYLKIAQEVEGSPKHKVSNDSIRIALTDPDNPRWISAQKDIISYVDETEAATSTITKNQDAQNNWLTQQANLSPAPKGFIIAPENGSGVGTAVNTIADKGIPIVAYDRLITGSDKYDWYVSFDNEKVGELQGLSLAAGLLGKEDGAFDSIDQMNEYLKSHMPQETISFYTIAGSQDDNNSQYFYNGAMKVLKELMKNSQNKIIDLSPEGENAVYVPGWNYGTAGQRIQSFLTINKDPAGGNKIKAVGSKPASIFKGFLAPNDGMAEQAITKLKLEGFDTQKIFVTGQDYNDKAKTFIKDGDQNMTIYKPDKVLGKVAVEVLRVLIAKKNKASRSEVENELKAKLPNISFKYDNQTYKVQGKNINTILVSPVIVTKANVDNPGAAKPEAAKPVAAKPETTKPVAAKPEAAKPEAAKPVAAKPEAAKPVAAKPEAAKPVAAKPEAAKPVAAKPEAAKPVATNTGFSLTNKPKEDYFPMTEGSSNQGKKSEGTPNQGKKAEGAPNQGKKAEGTPNQGKKAEGAPSQQSPTTE
notes: also called Rrp41-P46-97R1R2
B2: Exomyc polyprotein 3, Rrp42-P216A-HSP-NrdF (other)
chain: MGSDNEIVAGIMRDHIINLLKEGKRIDDRGFEDYRPIEIEVGVIEKAEGSALVKLGSTQVLVGIKTSLGEPFPDTPNMGVMTTNVELVPLASPTFEPGPPDERAIELARVIDRGIRESKALNLEKMVIVPGKIVRVVFIDVHVLDHDGNLMDAIGIAAIAALLNARVPKVRYNEETGEVETLDETEPLPVEKIPVPVTFAKIGNILVVDPSLDEELVMDGKITITTDETGHISAVQKSEGGAFKLEEVMYAVETAFKKAEEIRKLILEAVEKAKQLEGQKKAVRKEEELETYNPKDEFNILNPGEISDVLLLDVTPLTLGIETLGGIATPLIPRNTTIPVTKSQIFSTAEDNQTEVTISVVQGERQLAADNKMLGRFNLSGIEAAPRGLPQIEVSFSIDVNGITTVSAKDKKTGKEQTITIKNTSTLSEEEINKMIQEAEENREADALKKDKIETTVRAEGLINQLEKSITDQGEKIDPKQKELLEKQIQELKDLLKEDKTDELKLKLDQIEAAAQSFAQATAQQANTSESDPKADDSNTIDAEIKQDGSGKQDEIKKFTFDLLYKLIELEKDYLYDLYSEVGLAESAIKFSIYNAGKFLQNLGYDSPFSKEETEIEPEIFSQLSARADENHDFFSGNGSSYVMALAEETEDEDWEF
notes: also called Rrp42-HSP-NrdF

Experiments:
[1] = biological target: T1, Exomyc polyprotein 1, Rrp4-P216B-P36-MHP271; test: co-expression in E. coli, co-retention on 500 kDa MWCO tangential filtration, SDS-PAGE
T1 construct: Expressed in E. coli BL21 (DE3) from pMRK-EXOMYC; also called Rrp4-P36-MHP271

[2] = biological target: B2; test: as above

Does B1 bind [1]?
Result: binds

Does B1 bind [2]?
Result: binds

Does B2 bind [1]?
Result: binds
